Results from the supplement of paper PMC7877785.
± gives the uncertainty stated by the source.

Assay: self-splicing fitness, log relative to wild type (ln ratio); higher = more splicing; Tetrahymena group I intron in knt gene, E. coli kanamycin selection, DiMSum; sequences stand for … in CUCUCU…GGAGGGAAAAGUUAUCAGGCAUGCACCUGGUAGCUAGUCUUUAAACCAAUAGAUUGCAUCGGUUUAAAAGGCAAGACCGUCAAAUUGCGGGAAAGGGGUCAACAGCCGUUCAGUACCAAGUCUCAGGGGAAACUUUGAGAUGGCCUUGCAAAGGGUAUGGUAAUAAGCUGACGGACAUGGUCCUAACCACGCAGCCAAGUCCUAAGUCAACAGAUCUUCUGUUGAUAUGGAUGCAGUUCACAGACUAAAUGUCGGUCGGGGAAGAUGUAUUCUUCUCAUAAGAUAUAGUCGGACCUCUCCUUAAUGGGAGCUAGCGGAUGAAGUGAUGCAACACUGGAGCCGCUGGGAACUAAUUUGUAUGCGAAAGUAUAUUGAUUAGUUUUGGAGUACUCGUGGUCG
Procedure, shortened: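 Pooled colonies went to amplicon sequencing on an Illumina HiSeq 2500 after six replicate transformations. The plates were LB agar with 100 μg/mL carbenicillin, 50 μM IPTG and 0.2% rhamnose, with or without 25 μg/mL kanamycin, incubated overnight at 37°C or 30°C. The E. coli BL21(DE3) library had all eight P1ex-region intron nucleotides randomised, the intron placed in the knt kanamycin-resistance gene on pET-22b(+). DiMSum fitness is the error-weighted combination of replicate fold changes, kanamycin against none, normalised to wild type.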

Sequence | self-splicing fitness (ln) (30 °C) | self-splicing fitness (ln) (37 °C)
UCACAGCAAUAUUACGUACG | -0.786 ± 0.093 | -0.747 ± 0.1
GUUUAGCAAUAUUACGGGGA | -3.57 ± 0.37 | -1.41 ± 0.22
CAUUAGCAAUAUUACGUUGA | -3.86 ± 0.37 | -2.65 ± 0.34
GUGAAGCAAUAUUACGGUUG | -1.71 ± 0.076 | -1.13 ± 0.11
UGCAAGCAAUAUUACGUUUU | -4.29 ± 0.16 | -3.33 ± 0.15
UAUUAGCAAUAUUACGCAUU | -2.09 ± 0.15 | -1.48 ± 0.17
CACUAGCAAUAUUACGACAG | -0.114 ± 0.076 | 0.0358 ± 0.079
CAAAAGCAAUAUUACGAUAA | -2.29 ± 0.1 | -0.871 ± 0.099
AUCAAGCAAUAUUACGAAAA | -2.84 ± 0.36 | -2.03 ± 0.27
AUUGAGCAAUAUUACGAUGU | -2.26 ± 0.11 | -1.41 ± 0.16
AGGGAGCAAUAUUACGUUGU | -3.01 ± 0.18 | -2.9 ± 0.2
UAGCAGCAAUAUUACGGUGC | -2.2 ± 0.22 | -3.51 ± 0.42
GAAGAGCAAUAUUACGCGGC | -2.37 ± 0.27 | -1.8 ± 0.33
GUCAAGCAAUAUUACGCUGA | -5.3 ± 0.45 | -3.74 ± 0.42
UGAAAGCAAUAUUACGGUAA | -1.02 ± 0.085 | -0.765 ± 0.078
CUAGAGCAAUAUUACGAUUC | -2.96 ± 0.29 | -2.75 ± 0.48
AAUUAGCAAUAUUACGAGAA | -2.65 ± 0.48 | -1.05 ± 0.28
UGGCAGCAAUAUUACGCAAG | -3.83 ± 0.18 | -2.44 ± 0.18
CGCGAGCAAUAUUACGCGCC | -1.37 ± 0.28 | -1.66 ± 0.48
GUGCAGCAAUAUUACGGAGU | -3.05 ± 0.12 | -2.07 ± 0.11
AGGUAGCAAUAUUACGCAAA | -2.317 ± 0.023 | -1.37 ± 0.035

Sequence | self-splicing fitness (ln) (30 °C) | self-splicing fitness (ln) (37 °C)
AGCAAGCAAUAUUACGCUAC | -3.82 ± 0.29 | -3.16 ± 0.4
UUUAAGCAAUAUUACGCAGG | -0.857 ± 0.14 | -0.494 ± 0.2
ACAUAGCAAUAUUACGCCAG | -2.65 ± 0.18 | -1.5 ± 0.21
GGAGAGCAAUAUUACGUCUA | -1.23 ± 0.13 | -1.4 ± 0.1
UCUAAGCAAUAUUACGCGAG | -3.69 ± 0.25 | -1.6 ± 0.17
UCAUAGCAAUAUUACGAAUU | -3.73 ± 0.32 | -2.48 ± 0.24
AUCAAGCAAUAUUACGGGAC | -2.23 ± 0.081 | -1.11 ± 0.1
UUCUAGCAAUAUUACGUCAC |  | -2.28 ± 0.37
AGAAAGCAAUAUUACGCGCC | -0.784 ± 0.11 | 0.139 ± 0.14
AUGAAGCAAUAUUACGGUGG | -1.87 ± 0.069 | -1.92 ± 0.12
CCGAAGCAAUAUUACGCGUG | -3.05 ± 0.14 | -2.56 ± 0.13
UCAUAGCAAUAUUACGGUCC | -3.53 ± 0.37 | -1.81 ± 0.35
CGCUAGCAAUAUUACGUAUA | -3.36 ± 0.15 | -2.55 ± 0.16
GGGGAGCAAUAUUACGACUC | -0.891 ± 0.25 | -0.405 ± 0.5
CGACAGCAAUAUUACGAUAC | -3.71 ± 0.25 | -2.96 ± 0.27
CUGAAGCAAUAUUACGUAUU | -3.86 ± 0.22 | -2.85 ± 0.3
CUAAAGCAAUAUUACGGCAC | -2.96 ± 0.22 | 
UUGUAGCAAUAUUACGUUUA | -1.36 ± 0.16 | -1.15 ± 0.17
AGCUAGCAAUAUUACGCCCU | -0.747 ± 0.13 | 0.627 ± 0.15
AAUCAGCAAUAUUACGUAUG | -0.407 ± 0.079 | 0.138 ± 0.11
ACACAGCAAUAUUACGAGGU | -2.85 ± 0.13 | -2.04 ± 0.14

Sequence | self-splicing fitness (ln) (30 °C) | self-splicing fitness (ln) (37 °C)
UUCAAGCAAUAUUACGCGGA | -2.64 ± 0.16 | -2.09 ± 0.15
UUUGAGCAAUAUUACGGGUC |  | -3.77 ± 0.46
UUGUAGCAAUAUUACGGGAU | -4.01 ± 0.29 | -2.78 ± 0.26
GACCAGCAAUAUUACGGUGA | -0.339 ± 0.057 | -0.154 ± 0.081
UACCAGCAAUAUUACGAAUG | -0.839 ± 0.055 | -0.00427 ± 0.073
UAACAGCAAUAUUACGGACG | -0.143 ± 0.055 | 0.21 ± 0.079
GAGUAGCAAUAUUACGACGA | -0.0886 ± 0.15 | -0.664 ± 0.12
GCCCAGCAAUAUUACGCCCC | -1.48 ± 0.15 | -0.245 ± 0.22
CGGUAGCAAUAUUACGCCGG | -1.45 ± 0.078 | -0.573 ± 0.12
CGCGAGCAAUAUUACGAUAG | -1.05 ± 0.13 | -0.593 ± 0.16
CUAAAGCAAUAUUACGGAGG | -1.82 ± 0.1 | 0.0636 ± 0.12
UGCGAGCAAUAUUACGUAGU |  | -1.9 ± 0.19
UGAGAGCAAUAUUACGGCUG | -1.5 ± 0.15 | -0.389 ± 0.26
AGCUAGCAAUAUUACGCGCA | -0.216 ± 0.095 | 0.0846 ± 0.13
UGAGAGCAAUAUUACGCGUC | -2.95 ± 0.38 | -1.37 ± 0.41
CAAGAGCAAUAUUACGCGCC | -3.44 ± 0.37 | -1.74 ± 0.42
CCAAAGCAAUAUUACGCAGG | -3.23 ± 0.15 | -3.74 ± 0.27
UAAAAGCAAUAUUACGCACU | -0.274 ± 0.056 | 0.0996 ± 0.068
CCUGAGCAAUAUUACGCUGC | -4.04 ± 0.37 | -2.34 ± 0.22
